The labels stand for the following.
B1: HDV Ribozyme (parent)
chain: GGCCGGCAUGGUCCCAGCCUCCUCGCUGGCGCCGGCUGGGCAACAUUCCGAGGGGACCGUCCCCUCGGUAAUGGCGAAUGGGACCCA

The variants in this data set derive from B1. Description: self-cleavage, relative activity (ratio to wild type); higher = more cleavage; co-transcriptional.
Regarding GGCCGGCAUGGUCCCAGCCUCCUCGCUGGCGCUGGCUGGGAAACAUUCCGAGGGGACCGUCCCCUCGGUAAUGGCGAAUGGGACCCA [C33U C41A], the self-cleavage came out at 0.7.

GGCCGGCAUGGUCCCAGCCUCCUCGCUGGCGCUGGCUGGGUAACAUUCCGAGGGGACCGUCCCCUCGGUAAUGGCGAAUGGGACCCA [C33U C41U]: the self-cleavage is 0.646. Consider GGCCGGCAUGGUCCCAGCCUCCUCGCUGGCGCUGGCUGGACAACAUUCCGAGGGGACCGUCCCCUCGGUAAUGGCGAAUGGGACCCA [C33U G40A], for which the self-cleavage was determined as 1.06. As for GGCCGGCAUGGUCCCAGCCUCCUCGCUGGCGCUGGCUGGCCAACAUUCCGAGGGGACCGUCCCCUCGGUAAUGGCGAAUGGGACCCA [C33U G40C], the figure is 0.286. As for GGCCGGCAUGGUCCCAGCCUCCUCGCUGGCGCUGGGUGGGCAACAUUCCGAGGGGACCGUCCCCUCGGUAAUGGCGAAUGGGACCCA [C33U C36G], the figure is 0.0665; as for GGCCGGCAUGGUCCCAGCCUCCUCGCUGGCGCUGGCUGGGCAAUAUUCCGAGGGGACCGUCCCCUCGGUAAUGGCGAAUGGGACCCA [C33U C44U], 0.543; as for GGCCGGCAUGGUCCCAGCCUCCUCGCUGGCGCGGGCUGGGCAACAUUCCGAGGGGACCGUCCCCUCGGAAAUGGCGAAUGGGACCCA [C33G U69A], 0.201. For GGCCGGCAUGGUCCCAGCCUCCUCGCUGGCGCGGGCUGGGCAACAUUCCGAGGGGACCGUCCCCUCGGCAAUGGCGAAUGGGACCCA [C33G U69C] the value was 0.277; for GGCCGGCAUGGUCCCAGCCUCCUCGCUGGCGCUGGCUGGGCAGCAUUCCGAGGGGACCGUCCCCUCGGUAAUGGCGAAUGGGACCCA [C33U A43G], 0.227; for GGCCGGCAUGGUCCCAGCCUCCUCGCUGGCGCUGGCUGGGCACCAUUCCGAGGGGACCGUCCCCUCGGUAAUGGCGAAUGGGACCCA [C33U A43C], 0.248. Take GGCCGGCAUGGUCCCAGCCUCCUCGCUGGCGCUGGCUGGGCAUCAUUCCGAGGGGACCGUCCCCUCGGUAAUGGCGAAUGGGACCCA [C33U A43U]: the self-cleavage turned out to be 0.356.

Regarding GGCCGGCAUGGUCCCAGCCUCCUCGCUGGCGCUGGCUGGGCAACAUUCCGAGGGGACCGUCCCCUCGGUAAUGGCGAAUGCGACCCA [C33U G81C], the self-cleavage came out at 0.119. With GGCCGGCAUGGUCCCAGCCUCCUCGCUGGCGCUGGCUGUGCAACAUUCCGAGGGGACCGUCCCCUCGGUAAUGGCGAAUGGGACCCA [C33U G39U], the self-cleavage worked out at 0.58. As to GGCCGGCAUGGUCCCAGCCUCCUCGCUGGCGCUGGCUGCGCAACAUUCCGAGGGGACCGUCCCCUCGGUAAUGGCGAAUGGGACCCA [C33U G39C], the self-cleavage was 0. For the variant GGCCGGCAUGGUCCCAGCCUCCUCGCUGGCGCUGGCUGGGCAACAUUCCGAGGGGACCGUCCCCUCGGUAAUGGCGAAUGGGAUCCA [C33U C84U], the self-cleavage is 0.479. As for GGCCGGCAUGGUCCCAGCCUCCUCGCUGGCGCUGGCUGGGCAACAUUCCGAGGGGACCGUCCCCUCGGUAAUGGCGAAUGGGAGCCA [C33U C84G], the figure is 0.628; as for GGCCGGCAUGGUCCCAGCCUCCUCGCUGGCGCUGGCUGGGCAACAUUCCGAGGGGACCGUCCCCUCGGUAAUGGCGAAUGGGAACCA [C33U C84A], 0.65; as for GGCCGGCAUGGUCCCAGCCUCCUCGCUGGCGCUGGCUGGGCCACAUUCCGAGGGGACCGUCCCCUCGGUAAUGGCGAAUGGGACCCA [C33U A42C], 0.259.

As to GGCCGGCAUGGUCCCAGCCUCCUCGCUGGCGCUGGCUGGGCGACAUUCCGAGGGGACCGUCCCCUCGGUAAUGGCGAAUGGGACCCA [C33U A42G], the self-cleavage stood at 0.427. For GGCCGGCAUGGUCCCAGCCUCCUCGCUGGCGCUGGCUGGGCAACAUUCCGAGGGAACCGUCCCCUCGGUAAUGGCGAAUGGGACCCA [C33U G55A], the self-cleavage was found to be 0.972. As for GGCCGGCAUGGUCCCAGCCUCCUCGCUGGCGCUGGCAGGGCAACAUUCCGAGGGGACCGUCCCCUCGGUAAUGGCGAAUGGGACCCA [C33U U37A], the figure is 0.17. As for GGCCGGCAUGGUCCCAGCCUCCUCGCUGGCGCUGGCUGGGCAACAUUCCGAGGGGACCGUGCCCUCGGUAAUGGCGAAUGGGACCCA [C33U C61G], the figure is 0.831. As for GGCCGGCAUGGUCCCAGCCUCCUCGCUGGCGCUGGCUGGGCAACAUUCCGAGGGGACCGUUCCCUCGGUAAUGGCGAAUGGGACCCA [C33U C61U], the figure is 0.918.

For GGCCGGCAUGGUCCCAGCCUCCUCGCUGGCGCUGGCUGGGCAACAUUCCGAGGGGACCGUCCCCUCGGUCAUGGCGAAUGGGACCCA [C33U A70C], the self-cleavage was 0.931.

As to GGCCGGCAUGGUCCCAGCCUCCUCGCUGGCGCUGGCUGGGCAACAUUCCGAGGGGACCGUCCCCUCGGUUAUGGCGAAUGGGACCCA [C33U A70U], the self-cleavage is 0.755. For GGCCGGCAUGGUCCCAGCCUCCUCGCUGGCGCUGGCUGGGCAACAUUCCGAGGGGACCGUCCCCUCGGUAAUGGCGAAUGGGACCCA [C33U] the value was 0.847; for GGCCGGCAUGGUCCCAGCCUCCUCGCUGGCGCUGGCUGGGCAACAUUUCGAGGGGACCGUCCCCUCGGUAAUGGCGAAUGGGACCCA [C33U C48U], 0.847; for GGCCGGCAUGGUCCCAGCCUCCUCGCUGGCGCUGGCUGGGCAACAUUGCGAGGGGACCGUCCCCUCGGUAAUGGCGAAUGGGACCCA [C33U C48G], 1.05. Take GGCCGGCAUGGUCCCAGCCUCCUCGCUGGCGCUGGCUGGGCAACAUUCCUAGGGGACCGUCCCCUCGGUAAUGGCGAAUGGGACCCA [C33U G50U]: the self-cleavage is 0.92.

GGCCGGCAUGGUCCCAGCCUCCUCGCUGGCGCGGGCUGGGCAACAUUCCGAGGGGACCGGCCCCUCGGUAAUGGCGAAUGGGACCCA [C33G U60G]: the self-cleavage was 0.217. For the variant GGCCGGCAUGGUCCCAGCCUCCUCGCUGGCGCUGGCUGGGCAACAUUCCGAGGGGACCGUCCCCUCGGUAAUGGAGAAUGGGACCCA [C33U C75A], the self-cleavage is 0.0923. For GGCCGGCAUGGUCCCAGCCUCCUCGCUGGCGCUGGCUGGGCAACAUUCCGAGGGGACCGUCCCCUCGGUAAUGACGAAUGGGACCCA [C33U G74A] the value was 0.277.

The record behind these values is the RNAGym collection of RNA variant scans (doi:10.7554/elife.80360).
